# Test results reported in IntAct's records for PubMed 21107322.
# B1: G2/mitotic-specific cyclin cdc13 (Schizosaccharomyces pombe (strain ATCC 38366 / 972)), P10815 (parent)
# chain: MTTRRLTRQHLLANTLGNNDENHPSNHIARAKSSLHSSENSLVNGKKATVSSTNVPKKRHALDDVSNFHNKEGVPLASKNTNVRHTTASVSTRRALEEKSIIPATDDEPASKKRRQPSVFNSSVPSLPQHLSTKSHSVSTHGVDAFHKDQATIPKKLKKDVDERVVSKDIPKLHRDSVESPESQDWDDLDAEDWADPLMVSEYVVDIFEYLNELEIETMPSPTYMDRQKELAWKMRGILTDWLIEVHSRFRLLPETLFLAVNIIDRFLSLRVCSLNKLQLVGIAALFIASKYEEVMCPSVQNFVYMADGGYDEEEILQAERYILRVLEFNLAYPNPMNFLRRISKADFYDIQTRTVAKYLVEIGLLDHKLLPYPPSQQCAAAMYLAREMLGRGPWNRNLVHYSGYEEYQLISVVKKMINYLQKPVQHEAFFKKYASKKFMKASLFVRDWIKKNSIPLGDDADEDYTFHKQKRIQHDMKDEEW
# partner: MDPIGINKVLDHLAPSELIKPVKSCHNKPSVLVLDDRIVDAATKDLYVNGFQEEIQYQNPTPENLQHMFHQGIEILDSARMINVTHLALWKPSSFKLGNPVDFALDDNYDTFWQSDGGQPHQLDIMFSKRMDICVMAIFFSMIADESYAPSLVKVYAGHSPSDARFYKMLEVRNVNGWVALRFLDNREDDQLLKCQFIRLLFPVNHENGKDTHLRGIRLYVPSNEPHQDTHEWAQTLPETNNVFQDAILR
# Variants of: B1
# Details: with apc10_yeast DOC1, P53068
row,Variant,effect of a mutation on the interaction
1,MTTRRLTRQHLLANTLGNNDENHPSNHIARAKSSLHSSENSLVNGKKATVSSTNVPKKAHAADDASAFHNKEGVPLASKNTNVRHTTASVSTRRALEEKSIIPATDDEPASKKRRQPSVFNSSVPSLPQHLSTKSHSVSTHGVDAFHKDQATIPKKLKKDVDERVVSKDIPKLHRDSVESPESQDWDDLDAEDWADPLMVSEYVVDIFEYLNELEIETMPSPTYMDRQKELAWKMRGILTDWLIEVHSRFRLLPETLFLAVNIIDRFLSLRVCSLNKLQLVGIAALFIASKYEEVMCPSVQNFVYMADGGYDEEEILQAERYILRVLEFNLAYPNPMNFLRRISKADFYDIQTRTVAKYLVEIGLLDHKLLPYPPSQQCAAAMYLAREMLGRGPWNRNLVHYSGYEEYQLISVVKKMINYLQKPVQHEAFFKKYASKKFMKASLFVRDWIKKNSIPLGDDADEDYTFHKQKRIQHDMKDEEW [R59A;L62A;V65A;N67A],decreasing interaction
